The results in this text go back to patent US20260022175A1 (Chugai, published 2026).

Assay [1] concerns the target T1, human FcγRIIIa V allotype extracellular domain with C-terminal His-tag (human, UniProt P08637 17-208).
T1 construct: extracellular domain; also called hFcγR IIIa V
The assay is described as follows: SPR Biacore T200, Ab captured via Fab-lambda, pH 7.4, 25C.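 Further: antibodies captured on a streptavidin chip carrying biotinylated anti-Fab-lambda, with each FcγR injected as analyte in phosphate buffer. KD fitted by 1:1 Langmuir or steady-state model depending on receptor.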 In general terms: SPR reads the build-up and loss of mass on a sensor chip optically.

The target of assay [2] is T2, human FcγRIIIa F allotype extracellular domain with C-terminal His-tag (human, UniProt P08637 17-208).
T2 construct: extracellular domain; also called hFcγR IIIa F
The description is as above.

In assay [3] the target is T3, human FcγRIIa R allotype extracellular domain with C-terminal His-tag (human, UniProt P12318 34-217).
T3 construct: extracellular domain; also called hFcγR IIa R
T3 sequence (looked up): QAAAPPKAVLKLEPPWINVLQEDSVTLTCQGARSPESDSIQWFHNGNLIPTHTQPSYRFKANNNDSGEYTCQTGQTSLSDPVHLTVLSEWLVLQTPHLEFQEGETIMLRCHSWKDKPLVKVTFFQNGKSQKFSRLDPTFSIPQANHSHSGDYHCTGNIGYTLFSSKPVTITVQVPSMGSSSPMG
Described as above.

For assay [4], the target named is T4, human FcγRIa extracellular domain with C-terminal His-tag (human, UniProt P12314 16-292).
T4 construct: extracellular domain; also called hFcγR Ia; hFcγRIa
Described as above.

In assay [5] the target is T5, human FcγRIIa H allotype extracellular domain with C-terminal His-tag (human, UniProt P12318 34-217).
T5 construct: extracellular domain; also called hFcγR IIa H
T5 sequence (looked up): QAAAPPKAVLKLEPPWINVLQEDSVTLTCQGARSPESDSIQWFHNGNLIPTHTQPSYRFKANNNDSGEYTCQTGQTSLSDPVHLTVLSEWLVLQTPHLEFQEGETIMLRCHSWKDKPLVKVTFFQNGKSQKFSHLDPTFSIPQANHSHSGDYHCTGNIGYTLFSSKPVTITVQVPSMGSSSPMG
Described as above.

For assay [6], the target named is T1, human FcγRIIIa V allotype extracellular …. In words: SPR; KD of 04H1637-G1m/04L1610-lam1 divided by KD of variant.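 Further: biacore T200 SPR at 25 °C, antibodies captured on anti-Fab-lambda SA chip with receptor as analyte, running buffer pH 7.4 for FcγRs and pH 6.0 for FcRn.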
Protocol: (§1) The interaction between the generated antibodies and human FcγRs was analyzed by the following method using Biacore T200. 50 mM Na-Phosphate, 150 mM NaCl, 0.05% Tween20 (pH 7.4) was used as the running buffer, and the assay was performed at 25° C. For the sensor chips, Series S SA (GE Healthcare) chips onto which CaptureSelect Human Fab-lambda Kinetics Biotin Conjugate (Thermo Fisher Scientific) was immobilized were used. The antibodies of interest were captured onto these chips and each FcγR diluted in the running buffer was allowed to interact with them. Chips were regenerated with 10 mM Glycine-HCl (pH 1.5) and 25 mM NaOH, and assay was performed by repeatedly capturing antibodies. The dissociation constants KD (mol/L) for FcγRs of each antibody were calculated using Biacore T200 Evaluation Software 2.0, using the 1:1 Langmuir binding model for FcγRIa and FcγRIIIa and the steady state affinity model for FcγRIIa. For FcγRIIb, the binding amount of FcγRIIb per unit amount of antibody was calculated by correcting the binding amount of FcγRIIb obtained from the sensorgram obtained by the measurement with the amount of antibody captured onto the chip surface.
(§2) The interaction between the generated antibodies and human FcRn was analyzed by the following method using Biacore T200. 50 mM Na-Phosphate, 150 mM NaCl, 0.05% Tween20 (pH 6.0) was used as the running buffer, and the assay was performed at 25° C. For the sensor chip, Series S SA (GE Healthcare) chips onto which CaptureSelect Human Fab-lambda Kinetics Biotin Conjugate (Thermo Fisher Scientific) was immobilized were used. The antibodies of interest were captured onto these chips and FcRn diluted in the running buffer was allowed to interact with them. Chips were regenerated with 10 mM Glycine-HCl (pH 1.5) and 25 mM NaOH, and assay was performed by repeatedly capturing antibodies. The dissociation constant for FcRn of each antibody was calculated using the steady state model, using Biacore T200 Evaluation Software 2.0.
In assay [7] the target is T2, human FcγRIIIa F allotype extracellular …. The description is as above.
Protocol: as §1, §2
Assay [8] concerns the target T3, human FcγRIIa R allotype extracellular …. The assay is described as above.
Protocol: as §1, §2
Assay [9] deals with T6, human FcRn (human, UniProt P55899 24-290; P61769 21-119).
T6 construct: Prepared by the method of WO 2010/107110; also called hFcRn
The description is as above.
Protocol: as §1, §2

For assay [10], the target named is T4, human FcγRIa extracellular domain with …. The description is as above.
Protocol: as §1, §2
In assay [11] the target is T5, human FcγRIIa H allotype extracellular …. The description is as above.
Protocol: as §1, §2
For assay [12], the target named is T7, human FcγRIIb extracellular domain with C-terminal His-tag (human, UniProt P31994 43-217).
T7 construct: extracellular domain; also called hFcγR IIb
T7 sequence (looked up): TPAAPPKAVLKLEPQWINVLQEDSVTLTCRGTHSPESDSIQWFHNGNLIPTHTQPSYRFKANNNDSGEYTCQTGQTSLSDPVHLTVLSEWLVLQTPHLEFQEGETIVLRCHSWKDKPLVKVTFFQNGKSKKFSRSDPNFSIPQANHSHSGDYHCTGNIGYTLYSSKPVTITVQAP
The assay is described as follows: SPR; binding amount divided by that of 04H1637-G1m/04L1610-lam1.

For assay [13], the target named is T7, human FcγRIIb extracellular domain with …. The assay is described as follows: SPR; FcγRIIb at 1000 nM, bound amount per unit captured Ab.
In assay [14] the target is T6, human FcRn. In words: SPR Biacore T200, Ab captured via Fab-lambda, pH 6.0, 25C, steady state.
Protocol: as §2

T1 sequence (P08637 17-208 F176V): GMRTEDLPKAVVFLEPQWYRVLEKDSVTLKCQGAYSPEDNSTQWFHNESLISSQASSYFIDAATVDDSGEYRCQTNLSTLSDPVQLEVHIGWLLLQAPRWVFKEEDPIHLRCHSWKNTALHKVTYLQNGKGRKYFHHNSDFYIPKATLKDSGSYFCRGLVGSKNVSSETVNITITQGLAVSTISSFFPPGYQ
T6 sequence (P55899 24-290 limits assumed, chain 1 of 2): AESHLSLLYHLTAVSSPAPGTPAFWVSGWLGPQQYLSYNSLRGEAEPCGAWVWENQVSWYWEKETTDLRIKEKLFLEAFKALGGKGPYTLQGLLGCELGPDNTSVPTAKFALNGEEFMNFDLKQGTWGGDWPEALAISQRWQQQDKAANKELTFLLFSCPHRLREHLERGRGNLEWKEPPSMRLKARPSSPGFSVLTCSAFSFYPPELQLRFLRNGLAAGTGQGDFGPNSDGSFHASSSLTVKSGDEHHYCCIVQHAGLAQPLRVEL
T6 sequence (P61769 21-119 limits assumed, chain 2 of 2): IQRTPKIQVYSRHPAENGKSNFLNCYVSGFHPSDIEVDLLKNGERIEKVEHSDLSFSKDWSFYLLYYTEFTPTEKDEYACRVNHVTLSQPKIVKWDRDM
T2 sequence (P08637 17-208): as the sequence (P08637 17-208 F176V) above, with V160F counted along it
T4 sequence (P12314 16-292): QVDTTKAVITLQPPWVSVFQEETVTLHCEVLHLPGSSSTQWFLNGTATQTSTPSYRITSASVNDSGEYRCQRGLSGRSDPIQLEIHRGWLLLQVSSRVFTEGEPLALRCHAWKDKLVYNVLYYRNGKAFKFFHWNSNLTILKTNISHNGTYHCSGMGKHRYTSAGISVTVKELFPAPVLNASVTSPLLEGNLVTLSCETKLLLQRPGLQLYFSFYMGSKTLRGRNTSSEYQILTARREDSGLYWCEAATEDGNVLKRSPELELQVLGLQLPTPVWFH

B1: 04H1654-KT461/04L1612-lam1//04H1656-HT443/04L1612-lam1 (antibody, human IgG1, lambda)
heavy 1: QVQLVESGGGVVQPGGSLRLSCAASGFTFSSKTMNWVRQAPGKGLEWVSSISTQSHYIYYARSVRGRFTISRDNAKNSLYLQMNSLRAEDTAVYYCARYGKREDMLWVFDYWGQGTLVTVSSASTKGPSVFPLAPSSKSTSGGTAALGCLVKDYFPEPVTVSWNSGALTSGVHTFPAVLQSSGLYSLSSVVTVPSSSLGTQTYICNVNHKPSNTKVDKRVEPKSCDKTHTCPPCPAPEFQWGPMVFLFPPKPKDVLMISRTPEVTCVVVDVSDEEPEVKFNWYVDGVEVHNAKTKPREEQYNATYRVVSVLPVLHQDWLNGKEYKCKVSNDALPAPEEKTISKAKGQPREPQVYTLPPSRKEMTKNQVSLTCLVKGFYPSDIAVEWESNGQPENNYKTTPPVLDSDGSFFLYSKLTVDKSRWQQGNVFSCSVMHEALHNHYTQKSLSLSP
heavy 2: QVQLVESGGGVVQPGGSLRLSCAASGFTFSSKTMNWVRQAPGKGLEWVSSISTQSHYIYYAESVRGRFTISRDNAKNSLYLQMNSLRAEDTAVYYCARYGAREDMLWVFDYWGQGTLVTVSSASTKGPSVFPLAPSSKSTSGGTAALGCLVKDYFPEPVTVSWNSGALTSGVHTFPAVLQSSGLYSLSSVVTVPSSSLGTQTYICNVNHKPSNTKVDKRVEPKSCDKTHTCPPCPAPELLAGPSVFLFPPKPKDVLMISRTPEVTCVVVDVSHEEPEVKFNWYVDGVEVHNAKTKPREEQYNATYRVVSVLPVLHQDWLNGKEYKCKVSNDALPAPEEETISKAKGQPREPQVYTLPPSREEMTKNQVSLTCLVKGFYPSDIAVEWESNGQPENNYKTTPPVLDSDGSFFLYSKLTVDKSRWQQGNVFSCSVMHEALHNHYTQESLSLSP
light: QSALTQPPSASGSPGQSVTISCEGPSTGVGDYTYVHWYQQHPGKAPKLMIYFTSKKPSGVPDRFSGSKSGNTASLTVSGLQAEDEADYYCQTYAAPLGPMFGGGTKLTVLGQPKAAPSVTLFPPSSEELQANKATLVCLISDFYPGAVTVAWKADSSPVKAGVETTTPSKQSNNKYAASSYLSLTPEQWKSHRSYSCQVTHEGSTVEKTVAPTECS
notes: Heterodimerized antibody
B1: the Kd (as a rule, the free concentration of one partner at which half of the binding sites on the other are occupied at equilibrium, for simple one-to-one binding) in assay [1] was 1.5 nM; in assay [2], 2.6 nM; in assay [3] it was 250 nM; in assay [4] it was 0.039 nM; in [5] it was 210 nM; in assay [14], 1600 nM. Besides, the “Relative value to KD between G1m and hFcγRs” value came out at 159 in assay [6]; 537 in [7]; 8.2 in assay [8]; 1.3 in assay [10]; 7.1 in assay [11]. Further, in assay [9], the “Relative value to KD between G1m and hFcRn” value came to 0.8. This molecule yielded a Relative binding amount in assay [12] of 3.1. Moreover, the Binding amount in assay [13] stood at 0.025.

B2: 04H1654-KT462/04L1612-lam1//04H1656-HT445/04L1612-lam1 (antibody, human IgG1, lambda)
heavy 1: QVQLVESGGGVVQPGGSLRLSCAASGFTFSSKTMNWVRQAPGKGLEWVSSISTQSHYIYYARSVRGRFTISRDNAKNSLYLQMNSLRAEDTAVYYCARYGKREDMLWVFDYWGQGTLVTVSSASTKGPSVFPLAPSSKSTSGGTAALGCLVKDYFPEPVTVSWNSGALTSGVHTFPAVLQSSGLYSLSSVVTVPSSSLGTQTYICNVNHKPSNTKVDKRVEPKSCDKTHTCPPCPAPEFQWGPMVFLFPPKPKDVLMISRTPEVTCVVVDVSDEEPEVKFNWYVDGVEVHNAKTKPREEQYNATYRVVSVLPVLHQDWLNGKEYKCKVSNDALPAPIEKTISKAKGQPREPQVYTLPPSRKEMTKNQVSLTCLVKGFYPSDIAVEWESNGQPENNYKTTPPVLDSDGSFFLYSKLTVDKSRWQQGNVFSCSVMHEALHNHYTQKSLSLSP
heavy 2: QVQLVESGGGVVQPGGSLRLSCAASGFTFSSKTMNWVRQAPGKGLEWVSSISTQSHYIYYAESVRGRFTISRDNAKNSLYLQMNSLRAEDTAVYYCARYGAREDMLWVFDYWGQGTLVTVSSASTKGPSVFPLAPSSKSTSGGTAALGCLVKDYFPEPVTVSWNSGALTSGVHTFPAVLQSSGLYSLSSVVTVPSSSLGTQTYICNVNHKPSNTKVDKRVEPKSCDKTHTCPPCPAPELLAGPSVFLFPPKPKDVLMISRTPEVTCVVVDVSHEEPEVKFNWYVDGVEVHNAKTKPREEQYNATYRVVSVLPVLHQDWLNGKEYKCKVSNDALPKPDEETISKAKGQPREPQVYTLPPSREEMTKNQVSLTCLVKGFYPSDIAVEWESNGQPENNYKTTPPVLDSDGSFFLYSKLTVDKSRWQQGNVFSCSVMHEALHNHYTQESLSLSP
light: QSALTQPPSASGSPGQSVTISCEGPSTGVGDYTYVHWYQQHPGKAPKLMIYFTSKKPSGVPDRFSGSKSGNTASLTVSGLQAEDEADYYCQTYAAPLGPMFGGGTKLTVLGQPKAAPSVTLFPPSSEELQANKATLVCLISDFYPGAVTVAWKADSSPVKAGVETTTPSKQSNNKYAASSYLSLTPEQWKSHRSYSCQVTHEGSTVEKTVAPTECS
notes: Heterodimerized antibody
On to B2, for which the Kd in assay [1] was 2.3 nM; in [2], 3.4 nM; in assay [3], 140 nM; in assay [4], 0.041 nM; in assay [5] it was 91 nM; in assay [14] it was 1600 nM. The “Relative value to KD between G1m and hFcγRs” value in assay [6] came to 106; in [7] it was 408; in assay [8], 14.2; in assay [10] it was 1.2; in [11], 16.1. Moreover, the “Relative value to KD between G1m and hFcRn” value in [9] stood at 0.8. In addition, the Relative binding amount in assay [12] was 3.4. Moreover, the Binding amount in assay [13] was 0.028.
